For one molecule, Kd results are on record in publication PMC4359074.

This experiment deals with mono-nucleosome di-methylated at H3K4 (Xenopus). Description: native gel or EMSA. Background: Mobility shift assays separate free from complexed probe on a gel.

B1: GST-PHD_(Yng2) (domain or fragment)
chain: TLYCFCQRVSFGEMVACDGPNCKYEWFHYDCVNLKEPPKGTWYCPECKIE
modifications: not checked
The Kd is the constant that tells how readily two partners part at equilibrium. Molecule B1 returned a Kd of 10 µM.
